Data published in article PMC8023661, “Engineering of Ancestors as a Tool to Elucidate Structure, Mechanism, and Specificity of Extant Terpene Cyclase” (Journal of the American Chemical Society, 2021).
Residue numbers refer to the chain shown, from its start.

Experiments:
[1] = target: T1, SvS-WT (Streptomyces violens, UniProt P0DPK6); assay: in vitro product formation, GC; format: biochemical; conditions: 2 µM enzyme, 3 h
T1 construct: extant wild-type enzyme, expressed in E. coli BL21(DE3), purified and desalted; dimeric in solution
T1 sequence (P0DPK6 1-359): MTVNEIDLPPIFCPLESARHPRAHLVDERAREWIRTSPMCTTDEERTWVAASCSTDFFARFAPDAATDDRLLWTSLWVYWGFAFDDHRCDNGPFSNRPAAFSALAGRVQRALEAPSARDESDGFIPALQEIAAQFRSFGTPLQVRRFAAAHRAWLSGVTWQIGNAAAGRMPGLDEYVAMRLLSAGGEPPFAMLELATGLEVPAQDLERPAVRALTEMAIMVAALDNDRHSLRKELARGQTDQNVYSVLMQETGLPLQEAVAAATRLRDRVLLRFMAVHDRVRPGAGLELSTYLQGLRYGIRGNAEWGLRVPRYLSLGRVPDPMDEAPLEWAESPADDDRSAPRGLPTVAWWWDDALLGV

[2] = target: T2, SvS-A2 (synthetic construct, UniProt Z9I7L2B0V8, A89H/W156Y); assay: Malachite Green assay; GC-FID competition experiment; format: biochemical; conditions: 60 µM each FPP and GGPP, ca. 400 nM enzyme, 30 °C, 3 h; library variants carry Ala89His
T2 construct: homodimer; first resolved N-terminal residue Asp09
T2 sequence (Z9I7L2B0V8 1-361 A89H/W156Y): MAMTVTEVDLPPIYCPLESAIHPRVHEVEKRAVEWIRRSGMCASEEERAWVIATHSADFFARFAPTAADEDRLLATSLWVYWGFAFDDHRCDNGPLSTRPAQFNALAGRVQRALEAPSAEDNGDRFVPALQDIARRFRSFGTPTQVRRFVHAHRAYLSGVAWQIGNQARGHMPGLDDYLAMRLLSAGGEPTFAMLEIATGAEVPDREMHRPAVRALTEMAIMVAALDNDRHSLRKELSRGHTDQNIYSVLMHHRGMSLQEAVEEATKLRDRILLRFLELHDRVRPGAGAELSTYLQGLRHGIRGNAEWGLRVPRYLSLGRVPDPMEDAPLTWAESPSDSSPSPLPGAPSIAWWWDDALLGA

[3] = target: spiroviolene synthase (SvS) from Streptomyces violens, extant enzyme (Streptomyces violens); assay: SEC; size exclusion chromatography of the enzyme in solution; conditions in the Supporting Methods (not shown)
[4] = target: T3, SvS-A2 (synthetic construct, UniProt Z9I7L2B0V8, A89H/A224I); assay: Malachite Green assay; GC-FID competition experiment; format: biochemical; conditions: 60 µM each FPP and GGPP, ca. 400 nM enzyme, 30 °C, 3 h; library variants carry Ala89His
T3 construct: homodimer; first resolved N-terminal residue Asp09
T3 sequence (Z9I7L2B0V8 1-361 A89H/A224I): T2 sequence (Z9I7L2B0V8 1-361 A89H/W156Y) with Y156W, A224I

[5] = substrate: CC(C)=CCC/C(C)=C/CC/C(C)=C/CC/C(C)=C/COP(=O)(O)OP(=O)(O)O; assay: initial rates of spiroviolene formation, cooperative fit; format: biochemical, synthetic construct; conditions: 0.5 µM enzyme, Hill coefficient fit
Description: initial rates of spiroviolene formation, cooperative fit on SvS-A2 | The KM value for GGPP reported herein is twice as high as previously reported

[6] = substrate: CC(C)=CCC/C(C)=C/CC/C(C)=C/CO[P@@](=O)(O)OP(=O)(O)O; assay: initial rates of hedycaryol formation, Michaelis-Menten fit; format: biochemical, synthetic construct; conditions: 0.5 µM enzyme

CC(C)=CCC/C(C)=C/CC/C(C)=C/CC/C(C)=C/COP(=O)(O)OP(=O)(O)O [GGPP]
in vitro product formation, GC ([1]; 60 µM GGPP, 30 °C): both enzymes accepted FPP and GGPP as substrates
Malachite Green assay; GC-FID competition experiment [2]: A Trp156Tyr exchange (Group III) results in a highly active and diterpene specific SvS-A2 variant

spiroviolene synthase (SvS) from Streptomyces violens, extant enzyme
stoichiometry N [3]: 2

CC(C)=CCC/C(C)=C/CC/C(C)=C/COP(=O)(O)OP(=O)(O)O [FPP]
in vitro product formation, GC ([1]; 60 µM FPP, 50 mM Tris-HCl pH 7.4, 30 °C): the extant enzyme in fact showed higher activity with FPP than GGPP
Malachite Green assay; GC-FID competition experiment [4]: Ala224Ile (group IV) reverses substrate preference of the reconstructed ancestral enzyme

B1: SvS-A2 (synthetic construct) (protein)
chain: T2 sequence (Z9I7L2B0V8 1-361 A89H/W156Y) with H89A, Y156W
notes: homodimer; first resolved N-terminal residue Asp09
Km [5]: 49 ± 6 µM
kcat [5]: 5.8 ± 0.6 × 10^-3 s^-1
Km [6]: 28 ± 11 µM
kcat [6]: 0.3 ± 0.04 × 10^-3 s^-1
